Where a chain is given by its changes, count along the chain named.
T1: Chimera #9 (Homo sapiens (Human), UniProt P49961 1-510)
T1 construct: Expressed on CHO cells
T1 chain: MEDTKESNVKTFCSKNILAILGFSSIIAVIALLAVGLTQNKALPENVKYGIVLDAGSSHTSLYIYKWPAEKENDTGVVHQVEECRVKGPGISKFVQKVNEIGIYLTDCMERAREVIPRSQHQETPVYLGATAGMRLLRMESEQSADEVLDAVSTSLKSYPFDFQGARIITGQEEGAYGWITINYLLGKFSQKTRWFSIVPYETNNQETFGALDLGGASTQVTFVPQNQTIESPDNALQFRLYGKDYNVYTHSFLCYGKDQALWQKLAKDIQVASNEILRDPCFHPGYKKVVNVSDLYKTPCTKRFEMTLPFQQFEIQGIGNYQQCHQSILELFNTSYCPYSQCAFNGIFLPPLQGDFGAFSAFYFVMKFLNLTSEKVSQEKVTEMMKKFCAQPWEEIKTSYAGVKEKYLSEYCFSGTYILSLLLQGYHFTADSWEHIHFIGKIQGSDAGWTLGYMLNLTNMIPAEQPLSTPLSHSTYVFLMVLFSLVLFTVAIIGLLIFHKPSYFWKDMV

T2: Chimera #10 (Homo sapiens (Human), UniProt P49961 1-510)
T2 construct: Expressed on CHO cells
T2 chain: T1 chain with D150A, S153E

T3: Chimera #14 (Homo sapiens (Human), UniProt P49961 1-510)
T3 construct: Expressed on CHO cells
T3 sequence: T1 chain with Q143E, S144L, E147R, A151V, K157S, S158N

T4: cynomolgus macaque (Macaca fascicularis) CD39 (Macaca fascicularis, UniProt P49961 7-510 (human entry))
T4 construct: On engineered CHO cells and on primary cyno B cells and monocytes; also called cyno CD39; cCD39
T4 chain: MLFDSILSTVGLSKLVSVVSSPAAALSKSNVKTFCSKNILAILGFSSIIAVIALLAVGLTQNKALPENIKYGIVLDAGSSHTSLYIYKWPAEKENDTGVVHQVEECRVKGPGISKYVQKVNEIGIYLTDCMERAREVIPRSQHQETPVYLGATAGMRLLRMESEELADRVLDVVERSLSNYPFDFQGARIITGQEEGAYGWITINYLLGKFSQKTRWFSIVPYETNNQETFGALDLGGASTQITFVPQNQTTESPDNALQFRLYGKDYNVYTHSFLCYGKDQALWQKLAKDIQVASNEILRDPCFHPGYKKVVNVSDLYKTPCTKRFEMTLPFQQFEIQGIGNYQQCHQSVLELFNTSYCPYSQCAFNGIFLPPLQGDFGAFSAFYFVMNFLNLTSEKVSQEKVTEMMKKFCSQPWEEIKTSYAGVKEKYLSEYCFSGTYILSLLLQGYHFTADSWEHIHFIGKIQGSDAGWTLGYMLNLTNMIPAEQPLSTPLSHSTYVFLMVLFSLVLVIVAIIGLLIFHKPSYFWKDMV

T5: Chimera #2 (human, UniProt P49961 1-510)
T5 construct: Expressed on CHO cells; also called human-mouse Chimera #2
T5 chain: T1 chain with D150A

B1: 31901 (antibody, human IgG4 S228P, kappa, V domains shown)
VH: QVQLVQSGAEVKKPGSSVKVSCKASGGTFSSLPISWVRQAPGQGLEWMGGIGFGTANYAQKFQGRVTITADESTSTAYMELSSLRSEDTAVYYCARGGAKYAGRYGMDVWGQGTTVTVSS
VL: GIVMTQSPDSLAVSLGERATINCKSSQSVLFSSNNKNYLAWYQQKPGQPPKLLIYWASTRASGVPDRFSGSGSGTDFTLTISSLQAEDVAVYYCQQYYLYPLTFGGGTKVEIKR
B2: 31905 (antibody, human IgG4 S228P, kappa, V domains shown)
VH: B1 VH with S30P, L32N, P33A, G103R, R104T
VL: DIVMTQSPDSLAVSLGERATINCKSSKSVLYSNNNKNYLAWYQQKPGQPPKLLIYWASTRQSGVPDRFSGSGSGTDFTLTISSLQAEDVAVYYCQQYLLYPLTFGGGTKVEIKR

Experiments:
[1] = target: T1, Chimera #9; test: FACS on CHO cells; Chimera 2 with human D150 ([..])
Experimental: (§1) The chimeras were expressed in CHO cells and the ability of anti-human CD39 antibodies to bind the chimeras tested via FACS. In brief, cells were washed and blocked in FACS buffer (PBS/2% FBS) for 30 min on ice. […] After 2 washes, cells were resuspended in FACS buffer and analyzed on BD Fortessa. Data was processed with FlowJo. Positive binding was scored as “yes” and lack of binding was scored as “NO” and examples of FACS plots used to generate this table are in FIGS. 14.F and 14.G.

[2] = target: T2, Chimera #10; test: FACS on CHO cells; Chimera 2 with human E153 ([..])
Experimental: (§2) The chimeras were expressed in CHO cells and the ability of anti-human CD39 antibodies to bind the chimeras tested via FACS. In brief, cells were washed and blocked in FACS buffer (PBS/2% FBS) for 30 min on ice. […] After 2 washes, cells were resuspended in FACS buffer and analyzed on BD Fortessa. Data was processed with FlowJo.

[3] = target: T3, Chimera #14; test: FACS on CHO cells; human CD39 with mouse S153 and T154
Experimental: as §1

[4] = target: T4, cynomolgus macaque (Macaca …); test: flow cytometry, 100 nM IgG, MFI on CHO-cCD39 / MFI on parental CHO;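 also: antibodies bound to the cells for 30 min in PBS, then bound IgG was revealed with a fluorescent goat anti-human IgG secondary antibody, 20 min on ice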
Experimental: 100 nanomolar IgGs (each antibody is indicated as a unique clone number in the FIG.) were incubated at 25° C. for 30 minutes on ice in phosphate buffered saline (PBS) with parental CHO cells or CHO cells engineered to express either human or cynomolgus macaque (Macaca fascicularis) CD39 (CHO CD39 cells). Cells were then washed with ice cold PBS and incubated with a fluorescently labeled goat-anti-human IgG for 20 minutes on ice. Cells were washed and resuspended in ice cold PBS prior to analysis by flow cytometry.

[5] = target: T5, Chimera #2; test: FACS on CHO cells; human M1-E142 + mouse Q143-S158 ([..]) + human Y159-V510
Experimental: as §2

Binder	binding result [1]	binding result [2]	binding result [3]	Cell Binding (FOB) [4] [fold over background]	binding result [5]
B1	no binding (tested: 15 ug/ml)	no binding (tested: 15 ug/ml)	no binding (tested: 15 ug/ml)	4660	no binding (tested: 15 ug/ml)
B2	no binding (tested: 15 ug/ml)	no binding (tested: 15 ug/ml)	no binding (tested: 15 ug/ml)	4940	no binding (tested: 15 ug/ml)

Source: patent US20210403593A1 (TIZONA THERAPEUTICS, published 2021)
